The assay deals with T1, α and γ ENaC (Rattus norvegicus, UniProt P37089+P37091).
T1 construct: expressed in transfected cells; host or cells: Xenopus laevis oocytes (cRNA injection)
T1 sequence (P37089 1-698): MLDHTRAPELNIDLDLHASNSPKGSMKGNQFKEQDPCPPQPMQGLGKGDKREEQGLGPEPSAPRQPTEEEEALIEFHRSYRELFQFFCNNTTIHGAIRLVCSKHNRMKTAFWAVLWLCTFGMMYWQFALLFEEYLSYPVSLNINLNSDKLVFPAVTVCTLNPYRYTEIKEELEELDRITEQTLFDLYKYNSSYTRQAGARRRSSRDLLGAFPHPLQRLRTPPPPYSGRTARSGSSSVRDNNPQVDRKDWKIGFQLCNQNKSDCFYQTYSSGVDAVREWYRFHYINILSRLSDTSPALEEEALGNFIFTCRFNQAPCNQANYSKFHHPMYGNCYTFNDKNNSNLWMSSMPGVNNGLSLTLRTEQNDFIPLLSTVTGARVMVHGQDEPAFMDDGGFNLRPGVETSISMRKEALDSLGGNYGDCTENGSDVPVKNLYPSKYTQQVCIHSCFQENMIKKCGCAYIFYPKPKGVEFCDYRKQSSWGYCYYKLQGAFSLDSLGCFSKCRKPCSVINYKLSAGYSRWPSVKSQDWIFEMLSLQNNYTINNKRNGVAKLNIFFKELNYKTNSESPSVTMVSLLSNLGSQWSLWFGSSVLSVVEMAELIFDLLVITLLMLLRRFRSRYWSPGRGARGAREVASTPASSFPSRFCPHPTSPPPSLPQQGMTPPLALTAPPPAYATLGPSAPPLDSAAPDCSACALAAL
T1 sequence (P37090 1-638 partner): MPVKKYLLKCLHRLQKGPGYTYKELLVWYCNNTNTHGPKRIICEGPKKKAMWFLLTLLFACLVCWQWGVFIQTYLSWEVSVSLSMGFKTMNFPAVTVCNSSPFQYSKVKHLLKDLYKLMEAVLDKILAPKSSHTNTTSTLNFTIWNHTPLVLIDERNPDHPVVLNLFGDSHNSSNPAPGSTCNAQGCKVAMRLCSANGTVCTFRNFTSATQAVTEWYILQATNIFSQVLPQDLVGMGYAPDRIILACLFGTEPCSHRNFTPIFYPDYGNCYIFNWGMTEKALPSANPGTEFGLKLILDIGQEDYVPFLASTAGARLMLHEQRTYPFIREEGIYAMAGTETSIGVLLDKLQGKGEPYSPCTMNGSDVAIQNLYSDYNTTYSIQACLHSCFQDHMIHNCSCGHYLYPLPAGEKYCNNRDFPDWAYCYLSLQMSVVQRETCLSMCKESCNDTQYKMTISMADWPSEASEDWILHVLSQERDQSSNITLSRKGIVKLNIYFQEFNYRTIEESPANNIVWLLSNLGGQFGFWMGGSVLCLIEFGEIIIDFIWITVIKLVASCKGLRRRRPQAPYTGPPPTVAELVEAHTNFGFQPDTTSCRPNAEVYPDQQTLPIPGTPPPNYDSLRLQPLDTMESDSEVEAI
T1 sequence (P37091 1-650): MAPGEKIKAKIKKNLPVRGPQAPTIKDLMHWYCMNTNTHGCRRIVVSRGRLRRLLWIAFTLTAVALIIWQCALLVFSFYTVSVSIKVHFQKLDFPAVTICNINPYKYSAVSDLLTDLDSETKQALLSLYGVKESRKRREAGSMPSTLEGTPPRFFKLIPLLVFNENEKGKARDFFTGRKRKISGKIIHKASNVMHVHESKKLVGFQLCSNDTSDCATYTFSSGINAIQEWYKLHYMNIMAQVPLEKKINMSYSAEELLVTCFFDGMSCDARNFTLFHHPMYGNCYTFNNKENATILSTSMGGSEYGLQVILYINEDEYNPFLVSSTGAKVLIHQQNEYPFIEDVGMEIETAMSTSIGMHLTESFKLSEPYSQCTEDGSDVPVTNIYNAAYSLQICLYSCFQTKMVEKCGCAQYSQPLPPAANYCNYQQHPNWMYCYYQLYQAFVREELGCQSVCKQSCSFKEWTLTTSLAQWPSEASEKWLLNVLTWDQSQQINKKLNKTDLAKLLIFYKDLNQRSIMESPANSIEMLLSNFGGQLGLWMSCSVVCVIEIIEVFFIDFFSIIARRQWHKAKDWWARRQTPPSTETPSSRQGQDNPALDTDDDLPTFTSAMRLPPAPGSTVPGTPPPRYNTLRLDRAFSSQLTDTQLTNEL
The assay can be described thus: ENaC cleavage by CAP2 in Xenopus oocytes (Western blot, V5 antibody). The class given is cell-based. The note with it: αβγENaC, CAP2 and SPLUNC1 co-expressed in oocytes. As for the experimental part:
Western Blotting: Airway surface liquid collected as described above was also placed in protease-inhibitor cocktail (Roche) for Western blotting. The protein concentration was determined using the BCA Assay (Pierce). To obtain SPLUNC1 from Xenopus oocytes, oocytes were lysed in Laemmli buffer or oocyte media was directly sampled and placed in Laemmli buffer. Proteins were resolved using SDS-PAGE and transferred to a Polyvinylidene Fluoride (PVDF) membrane. The membrane was then probed using αSplunc1 or αV5 antibodies and a Donkey anti-Mouse HRP antibody (R&D). The blots were then incubated with ECL reagents (Pierce).
Co-Immunoprecipitation: Xenopus oocytes were injected with either HA-N-Terminus or V5-C-Terminus (HA-NT/V5-CT) tagged subunits in combination with wild type (WT) untagged rat αβγENaC subunits (0.3 ng cRNA each) with or without V5-tagged SPLUNC1 and CAP2 (1 ng cRNA each). After 24 h, 40 eggs per experimental condition were lysed with buffer containing (in mM): 20 Tris, 50 NaCl, 50 NaF, 10 β-glycerophosphate, 5 Na4P2O7 pyrophosphate, 1 EDTA, pH 7.5 and protease inhibitors (complete, Roche), aprotinin (Sigma). Cell lysates were prepared by passing the eggs through a 27 G1/2 needle twice and by centrifugation at 3,600 rpm for 10 minutes at 4° C. Supernatants were transferred to new tubes and samples were spun at 14,000 rpm for 20 minutes at 4° C. […]
Background: Immunoblotting shows a protein as a band on a membrane.

B1: SPLUNC1: human SPLUNC1, 256 amino acid secreted PLUNC protein (SEQ ID NO:1); rSPLUNC1 = V5/6His-tagged protein purified from HEK293 media (protein, listed as Homo sapiens)
chain: MFQTGGLIVFYGLLAQTMAQFGGLPVPLDQTLPLNVNPALPLSPTGLAGSLTNALSNGLLSGGLLGILENLPLLDILKPGGGTSGGLLGGLLGKVTSVIPGLNNIIDIKVTDPQLLELGLVQSPDGHRLYVTIPLGIKLQVNTPLVGASLLRLAVKLDITAEILAVRDKQERIHLVLGDCTHSPGSLQISLLDGLGPLPIQGLLDSLTGILNKVLPELVQGNVCPLVNEVLRGLDITLVHDIVNMLIHGLQFVIKV
modifications: V5/6His tag
notes: rSPLUNC1 = V5/6His-tagged protein purified from HEK293 media
B1: the “α and γ ENaC cleavage by CAP2” value is “only full-length α and γ ENaC subunits could be observed”.

The values are drawn from patent US9549967B2, “Regulation of sodium channels by PLUNC proteins” (The University of North Carolina at Chapel Hill, priority 2009, dated 2017).
